Here are results for two molecules from publication PMC10450579 (2023).

To fix the notation:
B1: Aurora A kinase (AurA), residues 122 to 403 (domain or fragment)
chain: ESKKRQWALEDFEIGRPLGKGKFGNVYLAREKQSKFILALKVLFKAQLEKAGVEHQLRREVEIQSHLRHPNILRLYGYFHDATRVYLILEYAPLGTVYRELQKLSKFDEQRTATYITELANALSYCHSKRVIHRDIKPENLLLGSAGELKIADFGWSVHAPSSRRTTLCGTLDYLPPEMIEGRMHDEKVDLWSLGVLCYEFLVGKPPFEANTYQETYKRISRVEFTFPDFVTEGARDLISRLLKHNPSQRPMLREVLEHPWITANSSKPSNCQNKESASKQS

Assay [1] addresses Mb3. The assay can be described thus: ITC.
Assay [2] has as its target Mb3. Nature of the assay: ITC; AurA preincubated with danusertib. (In general: ITC needs no label: the signal is the heat of the interaction.)
In assay [3] the target is B1. The assay can be described thus: ITC.

Several values for one entry are separate records, joined by “and”; a condition that tells them apart may be missing. Equal values may be shown once.

On to B1, for which the Kd – broadly, the free concentration of one partner at which half of the binding sites on the other are occupied at equilibrium, for simple one-to-one binding – in assay [1] is 180 nM; in assay [2], 69 nM.

B2: monobody Mb2 (designed binder)
chain: GSVSSVPTKLEVVAATPTSLLISWDAPAVTVVHYVITYGETGGNSPVQEFTVPGSKSTATISGLKPGVDYTITVYAIDFYWGSYSPISINYRT
With B2, the Kd in assay [3] is 889 nM and 1500 nM.
